Our source for the percent of the live KG1a population bound values is publication PMC7076219.

In the experiment the target is ligands on KG1a cells (human (endogenous in KG1a)). Briefly: flow cytometry on cells; KG1a cells stained with 10 ug/ml E-selectin protein in HBSS with 5% FBS and 2 mM CaCl2, 4 °C, 20 min; detected by Strep-tag II mAb and PE anti-mouse IgG1. Background: A flow cytometer gives signals particle by particle.

B1: E-S6 (monomeric full-length extracellular mouse E-selectin) (domain or fragment)
chain: WYYNASSELMTYDEASAYCQRDYTHLVAIQNKEEINYLNSNLKHSPSYYWIGIRKVNNVWIWVGTGKPLTEEAQNWAPGEPNNKQRNEDCVEIYIQRTKDSGMWNDERCNKKKLALCYTASCTNASCSGHGECIETINSYTCKCHPGFLGPNCEQAVTCKPQEHPDYGSLNCSHPFGPFSYNSSCSFGCKRGYLPSSMETTVRCTSSGEWSAPAPACHVVECEALTHPAHGIRKCSSNPGSYPWNTTCTFDCVEGYRRVGAQNLQCTSSGIWDNETPSCKAVTCDAIPQPQNGFVSCSHSTAGELAFKSSCNFTCEQSFTLQGPAQVECSAQGQWTPQIPVCKAVQCEALSAPQQGNMKCLPSASGPFQNGSSCEFSCEEGFELKGSRRLQCGPRGEWDSKKPTCSAVKCDDVPRPQNGVMECAHATTGEFTYKSSCAFQCNEGFSLHGSAQLECTSQGKWTQEVPSCQVVQCPSLDVPGKMNMSCSGTAVFGTVCEFTCPDDWTLNGSAVLTCGATGRWSGMPPTCEAPVSPTRP
On to B1, for which the percent of the live KG1a population bound worked out at 86%.
